# Laboratory results published in US5550213, “Inhibitors of urokinase plasminogen activator” (Rutgers, The State University of New Jersey, dated 1996).
# Numbering of substitutions follows the chain as printed.
# B1: The PAI-2 derived mutant, 88 (designed binder)
# chain: VDCSEYPKPACGRTGHPLCGSDNKTYGNKCNFCNAVVESNGTLTLSHFGKC
# B2: The Plasminogen derived mutant, 90 (designed binder)
# chain: B1 chain with T14V, G15V, H16G
# B3: The PAI-1 derived mutant, 89 (designed binder)
# chain: B1 chain with G12A, T14M, G15A, H16A
# B4: The Nexin-1 derived mutant, 91 (designed binder)
# chain: B1 chain with G12A, T14S, G15S, H16A
# Target: T1, Urokinase plasminogen activator (Homo sapiens (Human), UniProt P00749)
# Assay: inhibition of UK activity; Ki by non-linear regression (Enzfitter) of free enzyme versus inhibitor concentration
# Experimental: Fractional enzyme activities for each inhibitor-UK interaction of the above discussed inhibitors were determined by the assay method of Empie and Laskowski (Empie, M. W. et al., *Biochem.* 21:2274–2284 (1982)), as adapted from Green and Work (Green, N. M. et al., Biochem. J. 54:347–352 (1953)). The concentration of UK used for these reactions was 35 nM. The reactions were carried out in Buffer C. […] These five mutants include the four detailed above (88, 89, 80, AND 91), and also a mutant with arginine at the P1 site of OM3TKY (P1-Arg). […] The values for PSTI, PAI-1, PAI-2, and Nexin-1 were obtained from Turpeinen, U. et al. (*Biochem. J.* 254:911–914 (1988)), Kruithof, C.K.O. et al. (Thromb.-Haemost. 55::65–68 (1986)), Christensen, U. et al. (Thromb.-Haemost. 48:24–26 (1982)), and Stein, P. E. et al. (*Nature* 347:99–102 (1990)), respectively.
# K_i values for the wild-type and mutant inhibitors versus urokinase were also determined by non-linear regression of the following equation: […]
# The non-linear regression was done using the program Enzfitter, by Robin Leatherbarrow. E_o represents a total enzyme concentration in the reaction, I_o represents total inhibitor concentration, E is the free enzyme for a given inhibitor concentration and K_i is the equilibrium constant for the inhibitor. E and K_i are the unknowns in the equation, and are solved for during the regression analysis. Enzyme and inhibitor concentrations used were determined as mentioned above.
row,Ki,Binder
1,67.6 nM,B1
2,51.3 nM,B2
3,35.9 nM,B3
4,505 nM,B4

# Target: T1, Urokinase plasminogen activator
# Assay: inhibition of UK (35 nM) activity on S-2288; Ki as slope of [I]o/(1-a) vs. 1/a
row,Ki,Binder
1,40 nM,B1
2,106 nM,B2
3,0.31 nM,B3
4,120 nM,B4
